B1: C-14D12: anti-α5β1 antibody, VH SEQ ID NO:109, VL SEQ ID NO:110; tested as mouse hybridoma antibody and as human IgG4 chimera (antibody, V domains shown)
VH: QVQLKESGPDLVAPSQSLSITCTVSGFSLTDYGVHWVRQPPGKGLEWLVVIWSDGSTTYNSALKSRLSITKDTSKRQVFLKMNSLQTDDTAMYYCARHAPSFIRYGSRYDALDYWGQGTSVTVSS
VL: QIVLTQSPAIMSASLGERVTLTCTASSSVTSSFLHWYQQKPGSSPKLWIYSTSNLASGVPARFSGSGSGTSYSLTISSMEAEDAATYYCHQYHRSPPTFGGGTKLEIK
modifications: C-14D12 VH Sequence; C-14D12 VL Sequence
notes: tested as mouse hybridoma antibody and as human IgG4 chimera

Experiments:
[1] = biological target: rh-α5β1 protein bound to human FN protein (Homo sapiens, UniProt P05556+P08648); test: SPR dissociation of rh-α5β1 bound to FN; type: biochemical; conditions: 1 μM antibody injected for 250s after 400 nM rh-α5β1; 25° C.
Procedure: Surface Plasmon Resonance (SPR) and a cell-based assay were used to test the effect of the antibodies on the dissociation of rh-α5β1 protein bound to human FN protein. The antibodies tested are representatives of the two groups of antibodies identified in Example 6 that define two different epitope binding groups and have distinct ligand blocking properties. […] In addition, the small molecule antagonist cyclic RGD (cRGD; Creative-Peptides, Shirley, New York, 11967, cat. no. CP22175) was tested as a comparator that inhibits α5β1 integrin binding to FN by competing at the ligand binding pocket.
Description of the SPR method used: FN protein dissolved in water was manually printed onto the bare gold-coated (thickness 47 nm) PlexArray Nanocapture Sensor Chip (Plexera Bioscience, Seattle, WA) at 40% humidity. The chip was incubated in 80% humidity at 4° C. for overnight and rinsed with 10×PBST (0.1M phosphate buffer, 1.54M NaCl, pH7.4, 0.5% Tween20) for 10 minutes (min), 1×PBST (0.01M phosphate buffer pH7.4, 0.154M NaCl, 0.05% Tween20) for 10 min, and deionized water twice for 10 min. The chip was then blocked with 5% (w/v) non-fat milk in water overnight, and washed with 10×PBST for 10 min, 1×PBST for 10 min, and deionized water twice for 10 min before being dried under a stream of nitrogen prior to use. SPR measurements were performed using PlexArray HT (Plexera Bioscience, Seattle, WA), a high-throughput surface plasmon resonance imaging (SPRi) platform. Collimated light (660 nm) passes through the coupling prism, reflects off the SPR-active gold surface, and is received by the CCD camera. Buffers and samples were injected by a non-pulsatile piston pump into the 30 μL flow cell that was mounted on the coupling prim. […] SPR binding responses (a.u.) were recorded and plotted over time.

[2] = tested on: U87MG cells; test: Cellular detachment of U87MG cells from FN coated plates; type: cell-based; conditions: antibodies 2.0-0.016 μg/mL, cRGD 20-0.16 μM; 1 hour and 3 hours
Procedure: The A-15B08 and A2-7A05 antibodies and cRGD were also tested for their ability to induce dissociation of cellular α5β1 integrin from FN. U87MG cells (HTB-14™, ATCC, Manassas, VA) which were originally derived from a Glioblastoma tumor, are known to express α5β1 integrin, and adhere to FN coated plates. After an overnight incubation on FN coated plates, the U87MG cells formed a loosely packed monolayer and have extended spindle shapes. If the cells are induced to detach from the plates, by trypsin for example, the attachment points are released, and the cells become round. This type of change in morphology was used to assess whether the antibodies and the small molecule inhibitor cRGD can induce U87MG cells to dissociate from FN coated plates.
The following method was used to assess cellular detachment activity: A 96-well cell culture plate (Thermo Fisher Scientific, Waltham, MA, cat. no. 165306) was coated with FN (Human Fibronectin, R&D Systems, Minneapolis, MN 55413, cat. no. 1918-FN) by incubation of 50 uL per well 32 μg/mL FN in 1×PBS for 1 hour at 37° C., then washed 2× with EMEM media (ATCC, Manassas, VA, cat. no. 30-2003) supplemented with 10% Fetal Bovine Serum (FBS; ATCC, Manassas, VA, cat. no. 30-2021). U87MG cells were plated at 20,000 cells per well in EMEM media+10% FBS overnight to allow for maximum adherence. The next day the media was replaced with fresh media that included a 1:5 dilution series of antibodies A-15B08, A2-7A05 or isotype control IgG4 at concentrations of 2.0, 0.4, 0.08 and 0.016 μg/mL or cRGD at 20, 4, 0.8 and 0.16 μM. All tests were run in duplicate. Cell morphology was assessed, and images were captured using a 10× objective of an ECHO Rebel light microscope (ECHO, San Diego, CA).

[3] = biological target: T1, binding of α5β1 integrin to fibronectin (FN) (Homo sapiens, UniProt P05556+P08648); test: Quantitative FN inhibition (FN-blocking) assay in ELISA format; type: biochemical; conditions: by ELISA
T1 construct: purchased Acro Biosystems IT1-H52W5
Description: To determine whether the 9 unique hybridoma clones selected as described in Example 4 were able to inhibit the binding of α5β1 integrin to fibronectin (FN), the antibodies were first purified from hybridoma supernatants by Protein A chromatography, protein concentrations measured by BCA assay (Pierce™ BCA Protein Assay Kit; Thermo Fisher Scientific, Waltham, MA, cat. no. 23225) and then tested in a quantitative FN inhibition assay in an ELISA format.
Immulon4 HBX ELISA 96-well plates were coated with FN by incubation overnight at 4° C. with 2.5 μg/mL human FN (R&D Systems, Minneapolis, MN 55413, cat. no. 1918-FN) in 1×PBS (0.01M phosphate buffer and 0.154M NaCl, pH 7.4). Plates were then washed 3 times with Wash Buffer (1× Tris Buffered Saline containing 0.05% Tween20), blocked with 2% BSA in 1×TBS for 2 hours at room temperature (RT). Antibodies were diluted in Standard Diluent (2% BSA, 1×TBS, 0.05% Tween20) containing 0.1 μg/mL rh-α5β1-6×His tagged protein (Acro Biosystems, Newark, DE, cat. no. IT1-H52W5), to generate an 11 point 1:3 antibody dilution series ranging from 10,000 ng/mL to 0.17 ng/mL. Isotype control antibody (Control Ab; Ms IgG2a EMD Millipore Corp, Billerica, MA, cat. no. PP102) was used to normalize data across different assay runs. For the assays, 100 uL of the antibody dilution series/His-tagged-α5β1 mixture was added to the wells after the blocking solution was removed and wells were washed 3 times. Following 1 hour at RT, the wells were washed 3 times, incubated with biotinylated Anti-6×His-Tag Ab (Invitrogen, Carlsbad, CA, cat. no. MAI-21315-BTIN) at 1:1000 in Standard Diluent for 1 hour, washed 3 times, incubated for 30 minutes with poly-HRP Streptavidin (Thermo Fisher Scientific, Waltham, MA, cat. no. N200), washed 4 times, incubated with TMB substrate (Thermo Fisher Scientific, Waltham, MA, cat. no. N301) for 2-5 minutes, followed by addition of ELISA Stop Solution (Invitrogen, Carlsbad, CA, cat. no. SS04). Absorbance 450 nm was measured. Data points were normalized to the isotype Control Ab values at each concentration and reported as % Absorbance 450 nm normalized to Control Ab. Non-linear regression analysis was used to fit curves (4-parameter) to the data using GraphPad Prism version 9.0.2 (GraphPad Software, LLC, San Diego, CA).
Freeze-thaw stability was tested on a small aliquot of each chimera antibody by overnight storage at −80° C. followed by thaw on ice, repeated three times. […] IC50s were calculated by non-linear regression analysis curve-fitting (4-parameter) of the ELISA data (FIG. 5) using GraphPad Prism version 9.0.2 (GraphPad Software, LLC, San Diego, CA). […]

[4] = biological target: rh-α5β1 (Homo sapiens, UniProt P05556+P08648); test: Competition binding studies by Biolayer Interferometry (epitope groups); conditions: for Response (nm) / % Response: secondary mAb pre-mixed with 20 nM rh-α5β1; for % Response: relative to antigen alone
Procedure: Epitope analysis via competition binding studies was performed using Biolayer Interferometry (BLI) on the 6 antibodies selected as described in Example 5. The anti-α5β1 FN blocking antibodies A2-7A05, C-14D12 and A-15B08 were immobilized on sensors and incubated with each of the other antibodies that had been preincubated with rh-α5β1, to determine whether this antibody-antigen association prevents or allows binding to the antibody on the sensor. The magnitude of observed binding (response) was compared to binding of antigen alone under the same conditions. If the overall response was greater than 120% of antigen binding alone, then the antibodies can pair with each other. If response was less than 80% of response of antigen binding alone, then the antibodies block each other. The protocol was as follows: preincubate the panel of antibodies with antigen (1 hr). Equilibrate the sensor (30 seconds (s))-->Load lead Ab on the sensor (700s)--->Quench (480s)--->Read baseline (480s)-->measure preincubated Ab+Ag association with loaded sensor (600s).

[5] = biological target: T2, rh-α5β1 in active conformation (binding to 12G10) (Homo sapiens, UniProt P05556+P08648); test: 12G10 conformation assay (α5β1 integrin binding to 12G10); conditions: human IgG4 chimeric antibodies; 0.5 mM MnCl2
T2 construct: purchased Acro Biosystems IT1-H52W5
Procedure: A Nunc MaxiSorp Flat-Bottom 96-well plate (Invitrogen, Waltham, MA, cat. no. 44-2404-21) was coated with 12G10 antibody at 2 μg/mL in 0.2M carbonate-bicarbonate buffer, pH9.4 (Thermo Scientific, Rockford, IL, cat. No. 28382) by incubation overnight at 4° C. Plates were then washed 3 times with Wash Buffer (1× Tris Buffered Saline containing 0.05% Tween20), then blocked with 2% BSA in 1×TBS for 2 hours at room temperature (RT). The human IgG4 chimeric versions of the antibodies were diluted in Standard Diluent (2% BSA, 1×TBS, 0.05% Tween20) containing 0.05 μg/mL rh-α5β1-6×His tagged protein (Acro Biosystems, Newark, DE, cat. no. IT1-H52W5) and 0.5 mM MnCl2 (TEKnova, Hollister, CA, cat. no. M0350) to generate a 7 point 1:5 antibody dilution series ranging from 10,000 ng/mL to 0.64 ng/mL. In addition to human IgG4 chimeric antibodies A-15B08, C-14D12 and A2-7A05, three other antibodies tested included IgG4 isotype control (human IgG4, Kappa, anti-fluorescein Ab00102-13.0, Absolute Antibody, Wilton, UK), anti-integrin alpha-5 clone SNAKA51 (MilliporeSigma, St. Louis, MO, cat. no. MABT201) known to induce integrin alpha-5 into an active conformation, and finally the 12G10 antibody itself which can directly compete with the 12G10 bound to the MaxiSorp plate. For the assays, 100 μL of the antibody dilution series, His-tagged-α5β1 mixture was added to the wells after the blocking solution was removed and wells were washed 3 times. […] Absorbance 450 nm was measured. Data points were normalized to the absorbance of the well containing no antibody for each dilution series and reported as Percent Binding. […]

Chain of rh-α5β1 (P08648 42-894 limits assumed): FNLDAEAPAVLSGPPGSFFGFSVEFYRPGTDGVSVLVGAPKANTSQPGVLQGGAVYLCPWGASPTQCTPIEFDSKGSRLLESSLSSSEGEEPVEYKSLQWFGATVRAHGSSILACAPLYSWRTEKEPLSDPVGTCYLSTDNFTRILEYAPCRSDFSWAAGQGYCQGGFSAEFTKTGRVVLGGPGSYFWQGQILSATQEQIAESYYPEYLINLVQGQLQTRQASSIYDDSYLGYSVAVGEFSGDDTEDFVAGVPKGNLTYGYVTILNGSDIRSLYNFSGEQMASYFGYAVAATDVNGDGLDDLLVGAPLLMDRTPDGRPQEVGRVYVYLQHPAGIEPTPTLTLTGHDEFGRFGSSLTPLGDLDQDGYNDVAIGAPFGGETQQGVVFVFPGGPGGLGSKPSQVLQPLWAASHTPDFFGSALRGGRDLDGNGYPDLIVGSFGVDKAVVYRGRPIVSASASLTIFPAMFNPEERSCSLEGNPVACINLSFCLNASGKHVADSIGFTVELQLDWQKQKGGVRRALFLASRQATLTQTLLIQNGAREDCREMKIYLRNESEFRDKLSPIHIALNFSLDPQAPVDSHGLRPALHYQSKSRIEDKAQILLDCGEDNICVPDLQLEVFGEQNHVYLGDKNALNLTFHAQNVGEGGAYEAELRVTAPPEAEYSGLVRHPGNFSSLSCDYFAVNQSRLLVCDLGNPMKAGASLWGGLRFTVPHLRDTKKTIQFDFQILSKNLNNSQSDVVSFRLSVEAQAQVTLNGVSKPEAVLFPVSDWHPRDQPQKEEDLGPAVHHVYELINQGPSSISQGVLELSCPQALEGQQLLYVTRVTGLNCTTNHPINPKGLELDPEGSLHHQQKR
Chain of rh-α5β1 (P08648 895-995 limits assumed): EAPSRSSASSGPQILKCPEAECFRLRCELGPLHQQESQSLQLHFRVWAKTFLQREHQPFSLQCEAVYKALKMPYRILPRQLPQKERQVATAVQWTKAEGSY
Chain of rh-α5β1 (P05556 21-728 limits assumed): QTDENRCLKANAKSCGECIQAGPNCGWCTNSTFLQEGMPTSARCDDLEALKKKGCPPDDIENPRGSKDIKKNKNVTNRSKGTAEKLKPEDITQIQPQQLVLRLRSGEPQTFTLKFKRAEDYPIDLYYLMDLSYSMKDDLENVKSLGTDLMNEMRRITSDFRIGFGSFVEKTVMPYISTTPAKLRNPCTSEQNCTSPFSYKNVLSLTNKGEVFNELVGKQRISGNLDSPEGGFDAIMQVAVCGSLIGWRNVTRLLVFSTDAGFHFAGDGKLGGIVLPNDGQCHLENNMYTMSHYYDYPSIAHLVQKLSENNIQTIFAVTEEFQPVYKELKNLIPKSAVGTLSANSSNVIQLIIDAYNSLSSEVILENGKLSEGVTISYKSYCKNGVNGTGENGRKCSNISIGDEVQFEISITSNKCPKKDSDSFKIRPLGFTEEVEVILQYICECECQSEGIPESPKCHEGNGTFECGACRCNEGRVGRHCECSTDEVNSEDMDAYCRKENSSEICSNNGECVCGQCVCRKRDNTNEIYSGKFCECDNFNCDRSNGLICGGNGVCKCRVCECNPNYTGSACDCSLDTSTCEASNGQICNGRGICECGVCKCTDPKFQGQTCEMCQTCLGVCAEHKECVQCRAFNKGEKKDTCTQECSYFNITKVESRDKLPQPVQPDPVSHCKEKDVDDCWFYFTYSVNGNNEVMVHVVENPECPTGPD
Chain of rh-α5β1 protein bound to human FN protein (P08648 42-894 limits assumed): as the sequence (P08648 42-894 limits assumed) above
Chain of rh-α5β1 protein bound to human FN protein (P08648 895-995 limits assumed): as the sequence (P08648 895-995 limits assumed) above
Chain of rh-α5β1 protein bound to human FN protein (P05556 21-728 limits assumed): as the sequence (P05556 21-728 limits assumed) above
T1 sequence (P08648 42-894 limits assumed): as the sequence (P08648 42-894 limits assumed) above
T1 sequence (P08648 895-995 limits assumed): as the sequence (P08648 895-995 limits assumed) above
T1 sequence (P05556 21-728 limits assumed): as the sequence (P05556 21-728 limits assumed) above
T2 sequence (P08648 42-894 limits assumed): as the sequence (P08648 42-894 limits assumed) above
T2 sequence (P08648 895-995 limits assumed): as the sequence (P08648 895-995 limits assumed) above
T2 sequence (P05556 21-728 limits assumed): as the sequence (P05556 21-728 limits assumed) above

| Molecule | effect on dissociation of rh-α5β1 protein bound to FN (SPR response) [1] | cellular detachment (cell rounding) of U87MG cells from FN coated plates [2] | class of FN binding blocker [3] | binding of rh-α5β1 complexed with antibody to A2-7A05 on the sensor ([4]; antibody preincubated with rh-α5β1, A2-7A05 immobilized on sensor) | binding of rh-α5β1 complexed with antibody to A-15B08 on the sensor ([4]; antibody preincubated with rh-α5β1, A-15B08 immobilized on sensor) | Response (nm) ([4]; immobilized mAb A2-7A05) | % Response ([4]; immobilized mAb A2-7A05) [%] | Response (nm) ([4]; immobilized mAb A-15B08) | % Response ([4]; immobilized mAb A-15B08) [%] | Response (nm) ([4]; immobilized mAb C-14D12) | % Response ([4]; immobilized mAb C-14D12) [%] | epitope group ([4]; two epitope groups among 6 antibodies) | reduction of α5β1 integrin binding to 12G10 [5] |
| --- | --- | --- | --- | --- | --- | --- | --- | --- | --- | --- | --- | --- | --- |
| cyclic RGD [cRGD, reference compound] | did not have any discernable effect on the dissociation rate | did not show significant cell detachment |  |  |  |  |  |  |  |  |  |  |  |
| B1 |  |  | strong blockers of FN binding | able to bind | not able to bind | 0.11 | 309.19 | −0.15 | −72.85 | −0.11 | −50.49 | second group | approximately 50% |

— US20240279345A1, “ALPHA 5 BETA 1 INTEGRIN BINDING AGENTS AND USES THEREOF” (PASITHEA THERAPEUTICS CORP., priority 2021, published 2024)
